Laboratory results reported in patent publication US20220348970A1, “METHODS AND COMPOSITIONS FOR 3-HYDROXYPROPIONATE PRODUCTION” (The Regents of the University of California, priority 2017, published 2022).

What was measured:
[1] = target: Actinobacillus succinogenes PCK (phosphoenolpyruvate carboxykinase), SEQ ID NO: 163 (Actinobacillus succinogenes, UniProt A6VKV4); experiment: Kinetics of PEPCK against PEP (carboxylation direction, malate dehydrogenase/NADH coupled); assay type: biochemical; details: 100 mM PBS buffer (pH 6.5), 1.25 mM ADP, 50 mM KHCO3, 2 mM MnCl2
Experimental: (§1) 5 genes encoding candidate PEPCKs were synthesized and cloned into expression vectors. After obtaining solubly expressed proteins, they were used for activity characterization. Each enzyme was assayed in the phosphenolpyruvate carboxylation direction in a solution containing 100 mM PBS buffer (pH 6.5), 0.20 mM NADH, 1.25 mM ADP, 2.5 mM PEP, 50 mM KHCO3, 2 mM MnCl2, and 4 units malate dehydrogenase.

[2] = substrate: O=C(O)CC(=O)C(=O)O; experiment: OAADC kinetics of A0A0J7KM68 on oxaloacetate; assay type: biochemical; details: other: oxaloacetate, pH 7.2, 21° C.
Experimental: (§2) All substrates were dissolved in MilliQ H2O and the pH was adjusted to 7.2 as necessary. Activity for oxaloacetate, pyruvate, and 2-ketoisovalerate was measured at a 1 mM substrate concentration. The assay was performed in a 96-well half-area plate. Each reaction contained reaction buffer (100 mM HEPES, 100 mM NaCl, 10% glycerol, pH 7.2), ADH (Sigma-Aldrich, A7011, 100 U/mL for pyruvate, 600 U/mL for oxaloacetate, and 600 U/mL for 2-ketoisovalerate), and a final concentration of 0.5 mM NADPH, 0.1 mM TPP, and 1 mM MgSO4. A range of substrate concentrations (0.1 mM-5 mM) were uSEQ to perform steady-state kinetics measurement over a period of one hour. Absorbance readings were taken at one minute intervals at 340 nm at 21° C. for 60 minutes using the Synergy H1 spectrophotometer (Biotek). Kinetic parameters (ka and Ks1) were determined by fitting initial velocity versus substrate concentration data to the Michaelis-Menten equation.
(§3) A second round of genome mining was conducted as described in Example 1, except using the 4COK sequence as the input. Genes encoding candidate OAADCs were synthesized and expressed in E. coli for further characterization. OAADC activity was assayed as described in Example 1.

[3] = substrate: O=C(O)CC(=O)C(=O)O; experiment: OAADC kinetics of 5EUJ on oxaloacetate; assay type: biochemical; details: other: oxaloacetate, pH 7.2, 21° C.
Experimental: as §2, §3

[4] = substrate: NC(=O)c1ccc[n+]([C@@H]2O[C@H](COP(=O)([O-])OP(=O)(O)OC[C@H]3O[C@@H](n4cnc5c(N)ncnc54)[C@H](O)[C@@H]3O)[C@@H](O)[C@H]2O)c1; experiment: 3-HPDH activity towards 3-HP (reverse reaction) using NAD+; assay type: biochemical, Metallosphaera sedula; details: other: activity towards 3-HP, pH 7.2, 21° C.
Experimental: (§4) Candidate ADHs were expressed in E. coli, and soluble expression levels were analyzed. 3-HP dehydrogenase (3-HPDH) activity of each was tested based on the reverse reaction, from 3-HP to 3-oxopropanoate. The assay was performed in a 96-well half-area plate. Each reaction contained a final concentration of 1 mM NADP^+/NAD^+ in reaction buffer (100 mM Hepes, 100 mM NaCl, 10% glycerol, pH 7.2) and ADHs. A range of substrates from 0.1 mM-5 mM was used to perform steady-state kinetics measurement over a period of an hour. Absorbance readings were taken every 1 min at OD 340 at 21° C. for 60 min. using the Synergy™ H1 Hybrid Multi-Mode Microplate Reader (Biotek). Kinetic parameters (kcat and KM) were determined by fitting initial velocity versus substrate concentration data to the Michaelis-Menten equation.

[5] = substrate: CC(=O)C(=O)O; experiment: Steady-state kinetics of 4COK decarboxylase on pyruvate and oxaloacetate (ADH/NADPH coupled, 340 nm); assay type: biochemical, Gluconacetobacter diazotrophicus; details: other: pH 7.2, 21° C., 0.1 mM-5 mM substrate
Experimental: Overnight cultures of BLR cells suspended in a 2 mL volume were transformed with a pet29b+ plasmid (encoding polypeptides of interest with a C-terminal His-tag) and grown in Terrific Broth with 50 μg/ml kanamycin. Cultures were diluted 1:1.000 in 500 ml of Terrific Broth with 1 mM MgSO4, 1% glucose and 50 μg/ml antibiotic and then grown at 37° C. for 24 hours. Cultures were pelleted down at 4,700 RPM for 10 minutes and resuspended in auto-induction media (LB broth, 1 mM MgSO4, 0.1 mM TPP, 1×NPS and 1×5052) for induction at 18° C. for 20 hours. At the end of induction, cells were centrifuged, the supernatant was removed and cells were resuspended in 40 mL lysis buffer (100 mM HEPES, pH 7.5, 100 mM NaCl, 10% glycerol, 0.1 mM TPP, 1 mM MgSO4, 10 mM Imidazole, 1 mM TCEP) and 1 mM phenylmethylsulphonyl fluoride. The cell lysate suspension was sonicated for 2 min and followed by centrifugation at 4,700 RPM. The supernatant was loaded onto a gravity flow column with 500 uL Cobalt beads and was washed with 15 mL of wash buffer five times. Proteins were eluted with […] of elution buffer (100 mM HEPES, pH 7.5, 100 mM NaCl, 10% glycerol, 0.1 mM TPP, 1 mM MgSO4, 200 mM Imidazole and 1 mM TCEP). Protein concentrations were determined using a Synergy H1 spectrophotometer (Biotek) by measuring absorbance at 280 nm using calculated extinction coefficients.
All substrates were dissolved in MilliQ H2O and the pH was adjusted to 7.2 as necessary. Activity for oxaloacetate, pyruvate, and 2-ketoisovalerate was measured at a 1 mM substrate concentration. The assay was performed in a 96-well half-area plate. […] Absorbance readings were taken at one minute intervals at 340 nm at 21° C. for 60 minutes using the Synergy H1 spectrophotometer (Biotek). Kinetic parameters (ka and Ks1) were determined by fitting initial velocity versus substrate concentration data to the Michaelis-Menten equation. […]

[6] = substrate: C=C(OP(=O)(O)O)C(=O)O; experiment: Kinetics of PEPCK against PEP (carboxylation direction, malate dehydrogenase/NADH coupled); assay type: biochemical, E. coli; details: other: PEP, 100 mM PBS buffer (pH 6.5), 1.25 mM ADP, 50 mM KHCO3, 2 mM MnCl2
Experimental: as §1

[7] = substrate: NC(=O)c1ccc[n+]([C@@H]2O[C@H](COP(=O)([O-])OP(=O)(O)OC[C@H]3O[C@@H](n4cnc5c(N)ncnc54)[C@H](O)[C@@H]3O)[C@@H](O)[C@H]2O)c1; experiment: 3-HPDH activity towards 3-HP (reverse reaction) using NAD+; assay type: biochemical; details: other: activity towards 3-HP, pH 7.2, 21° C.
Experimental: as §4

Chain of Actinobacillus succinogenes PCK (phosphoenolpyruvate carboxykinase), SEQ ID NO: 163 (A6VKV4 whole entry): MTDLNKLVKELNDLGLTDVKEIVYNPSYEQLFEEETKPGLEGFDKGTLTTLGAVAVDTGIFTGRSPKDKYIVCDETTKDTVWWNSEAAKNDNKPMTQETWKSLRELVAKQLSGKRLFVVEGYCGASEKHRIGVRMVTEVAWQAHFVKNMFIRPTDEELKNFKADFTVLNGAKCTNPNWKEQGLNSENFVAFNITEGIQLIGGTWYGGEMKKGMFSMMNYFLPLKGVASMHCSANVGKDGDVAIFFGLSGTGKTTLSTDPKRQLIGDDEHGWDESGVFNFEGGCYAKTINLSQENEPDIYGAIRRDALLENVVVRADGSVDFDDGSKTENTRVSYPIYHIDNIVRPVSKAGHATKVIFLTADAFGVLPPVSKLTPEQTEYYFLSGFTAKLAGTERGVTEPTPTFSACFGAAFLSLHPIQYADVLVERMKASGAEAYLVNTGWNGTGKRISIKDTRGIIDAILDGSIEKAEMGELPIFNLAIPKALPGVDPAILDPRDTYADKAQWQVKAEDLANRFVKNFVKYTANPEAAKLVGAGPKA

## C=C(OP(=O)(O)O)C(=O)O [PEP, phosphoenolpyruvate]
[1]
  Km: 169 µM
  kcat: 2.875 s⁻¹

B1: OAADC A0A0J7KM68_LASNI, SEQ ID NO: 145 (Lasius niger) (protein)
chain: MSYTVGQYLADRLVQIGLKDHFAIAGDYNLVLLDQFLKNKNWNQIYDCNELNCGFAAEGYARANGAAACVVTYTVGAISAMNSALAGAYAENLPVLCISGAPNCNDYGSGRILHHTIGKPEFTQQLDMVKHVTCAAESVVQASEAPAKIDHVIRTMLLEQRPAYIDIACNISGLECPRPGPIEDLLPQYAADNKSLTSAIDAIAKKIEASQKVTLYVGPKVRPGKAKEASVKLADALGCAVTVGPASMSFFPAKHPGFRGTYWGIVSTGDANKVVEEAETLIVLGPNWNDYATVGWKAWPKGPRVVTIDEKAAQVDGQVFSGLSMKALVEGLAKKVSKKPATAEGTKAPHFEYPVAKPDAKLTNAEMARQINAILDDNTTLHAETGDSWFNVKNMNWPNGLRIESEMQYGHIGWSIPSGFGGAIGSPERKHIIMCGDGSFQLTCQEVSQMIRYKLPVTIFLIDNHGYGIEIAIHDGPYNYIQNWNFTKLMEVFNGEGEECPYSHNKNGKSGLGLKATTPAELADAIKQAEANKEGPTLIQVVIDQDDCTKDLLTWGKEVAKTNARSPVVTDKAGGSG
[2]
  Km: 2389 µM
  kcat: 6.25 s⁻¹
  kcat/Km: 2620 ± 224 M⁻¹ s⁻¹

B2: OAADC 5EUJ, SEQ ID NO: 146 (Zymobacter palmae) (protein)
chain: MYTVGMYLAERLAQIGLKHHFAVAGDYNLVLLDQLLLNKDMEQVYCCNELNCGFSAEGYARARGAAAAIVTFSVGAISAMNAIGGAYAENLPVILISGSPNTNDYGTGHILHHTIGTTDYNYQLEMVKHVTCAAESIVSAEEAPAKIDHVIRTALRERKPAYLEIACNVAGAECVRPGPINSLLRELEVDQTSVTAAVDAAVEWLQDRQNVVMLVGSKLRAAAAEKQAVALADRLGCAVTIMAAAKGFFPEDHPNFRGLYWGEVSSEGAQELVENADAILCLAPVFNDYATVGWNSWPKGDNVMVMDTDRVTFAGQSFEGLSLSTFAAALAEKAPSRPATTQGTQAPVLGIEAAEPNAPLTNDEMTRQIQSLITSDTTLTAETGDSWFNASRMPIPGGARVELEMQWGHIGWSVPSAFGNAVGSPERRHIMMVGDGSFQLTAQEVAQMIRYEIPVIIFLINNRGYVIEIAIHDGPYNYIKNWNYAGLIDVFNDEDGHGLGLKASTGAELEGAIKKALDNRRGPTLIECNIAQDDCTETLIAWGKRVAATNSRKPQAGGSG
[3]
  Km: 6667 µM
  kcat: 28.8 s⁻¹
  kcat/Km: 4320 ± 321 M⁻¹ s⁻¹

B3: 3-HPDH A4YI81, SEQ ID NO: 154 (Metallosphaera sedula DSM 5348) (protein)
chain: MTEKVSVVGAGVIGVGWATLFASKGYSVSLYTEKKETLDKGIEKLRNYVQVMKNNSQITEDVNTVISRVSPTTNLDEAVRGANFVIEAVIEDYDAKKKIFGYLDSVLDKEVILASSTSGLLITEVQKAMSKHPERAVIAHPWNPPHLLPLVEIVPGEKTSMEVVERTKSLMEKLDRIVVVLKKEIPGFIGNRLAFALFREAVYLVDEGVATVEDIDKVMTAAIGLRWAFMGPFLTYHLGGGEGGLEYFFNRGFGYGANEWMHTLAKYDKFPYTGVTKAIQQMKEYSFIKGKTFQEISKWRDEKLLKVYKLVWEK
notes: UniProt strain ATCC 51363 / DSM 5348 / TH2
[4]
  Km: 650 µM

B4: pyruvate decarboxylase from Gluconacetobacter diazotrophicus (4COK), SEQ ID NO: 1 (Gluconacetobacter diazotrophicus PA1 5) (protein)
chain: MTYTVGRYLADRLAQIGLKHHFAVAGDYNLVLLDQLLLNTDMQQIYCSNELNCGFSAEGYARANGAAAAIVTFSVGALSAFNALGGAYAENLPVILISGAPNANDHGTGHILHHTLGTTDYGYQLEMARHITCAAESIVAAEDAPAKIDHVIRTALREKKPAYLEIACNVAGAPCVRPGGIDALLSPPAPDEASLKAAVDAALAFIEQRGSVTMLVGSRIRAAGAQAQAVALADALGCAVTTMAAAKSFFPEDHPGYRGHYWGEVSSPGAQQAVEGADGVICLAPVFNDYATVGWSAWPKGDNVMLVERHAVTVGGVAYAGIDMRDFLTRLAAHTVRRDATARGGAYVTPQTPAAAPTAPLNNAEMARQIGALLTPRTTLTAETGDSWFNAVRMKLPHGARVELEMQWGHIGWSVPAAFGNALAAPERQHVLMVGDGSFQLTAQEVAQMIRHDLPVIIFLINNHGYTIEVMIHDGPYNNVKNWDYAGLMEVFNAGEGNGLGLRARTGGELAAAIEQARANRNGPTLIECTLDRDDCTQELVTWGKRVAAANARPPRAG
notes: likely strain PAl 5 (ATCC 49037 / DSM 5601)
[5]
  Km: 1490 ± 430 µM
  kcat: 8.25 ± 1.87 s⁻¹
  kcat/Km: 5532 ± 39.4 M⁻¹ s⁻¹

B5: E. coli PCK (phosphoenolpyruvate carboxykinase, PCKA_Ecoli), SEQ ID NO: 162 (Escherichia coli K-12) (protein)
chain: MRVNNGLTPQELEAYGISDVHDIVYNPSYDLLYQEELDPSLTGYERGVLTNLGAVAVDTGIFTGRSPKDKYIVRDDTTRDTFWWADKGKGKNDNKPLSPETWQHLKGLVTRQLSGKRLFVVDAFCGANPDTRLSVRFITEVAWQAHFVKNMFIRPSDEELAGFKPDFIVMNGAKCTNPQWKEQGLNSENFVAFNLTERMQLIGGTWYGGEMKKGMFSMMNYLLPLKGIASMHCSANVGEKGDVAVFFGLSGTGKTTLSTDPKRRLIGDDEHGWDDDGVFNFEGGCYAKTIKLSKEAEPEIYNAIRRDALLENVTVREDGTIDFDDGSKTENTRVSYPIYHIDNIVKPVSKAGHATKVIFLTADAFGVLPPVSRLTADQTQYHFLSGFTAKLAGTERGITEPTPTFSACFGAAFLSLHPTQYAEVLVKRMQAAGAQAYLVNTGWNGTGKRISIKDTRAIIDAILNGSLDNAETFTLPMFNLAIPTELPGVDTKILDPRNTYASPEQWQEKAETLAKLFIDNFDKYTDTPAGAALVAAGPKL
[6]
  Km: 190.5 µM
  kcat: 3.42 s⁻¹
  kcat/Km: 18000 M⁻¹ s⁻¹

B6: 3-HPDH 2CVZ, SEQ ID NO: 159 (Thermus thermophilus HB8) (protein)
chain: MEKVAFIGLGAMGYPMAGHLARRFPTLVWNRTFEKALRHQEEFGSEAVPLERVAEARVIFTCLPTTREVYEVAEALYPYLREGTYWVDATSGEPEASRRLAERLREKGVTYLDAPVSGGTSGAEAGTLTVMLGGPEEAVERVRPFLAYAKKVVHVGPVGAGHAVKAINNALLAVNLWAAGEGLLALVKQGVSAEKALEVINASSGRSNATENLIPQRVLTRAFPKTFALGLLVKDLGIAMGVLDGEKAPSPLLRLAREVYEMAKRELGPDADHVEALRLLERWGGVEIR
notes: PDB 2CVZ is from strain HB8 (ATCC 27634 / DSM 579)
[7]
  Km: 420 µM
